According to article PMC2156174:

Molecular target: endogenous Tom40 (N. crassa (endogenous in isolated mitochondria)) (UniProt P24391)
Experiment: cross-linking

endogenous Tom40 (from UniProt P24391 1-349) (natural protein)
stoichiometry N: 2
